Results as given in publication PMC3400628 (PLoS ONE, 2012).

Target: T1, Flag-NOD2 (human, UniProt Q9HC29 1-1040)
T1 construct: NOD2, human; The deletion constructs count up to aa 1040, the length of whole NOD2; also called NOD2 WT; Flag-NOD2 WT; source: HEK293T, transfected, in lysate; not shown: Flag, N-terminal, kept
Details: partners not purified

- fold change of TRIM27 co-precipitated with NOD2 at 3 h after 10 µM MDP against untreated controls: > 2 fold
B1: myc-TRIM27 WT (natural protein, human, UniProt P14373 1-513, looked up)
chain: MASGSVAECLQQETTCPVCLQYFAEPMMLDCGHNICCACLARCWGTAETNVSCPQCRETFPQRHMRPNRHLANVTQLVKQLRTERPSGPGGEMGVCEKHREPLKLYCEEDQMPICVVCDRSREHRGHSVLPLEEAVEGFKEQIQNQLDHLKRVKDLKKRRRAQGEQARAELLSLTQMEREKIVWEFEQLYHSLKEHEYRLLARLEELDLAIYNSINGAITQFSCNISHLSSLIAQLEEKQQQPTRELLQDIGDTLSRAERIRIPEPWITPPDLQEKIHIFAQKCLFLTESLKQFTEKMQSDMEKIQELREAQLYSVDVTLDPDTAYPSLILSDNLRQVRYSYLQQDLPDNPERFNLFPCVLGSPCFIAGRHYWEVEVGDKAKWTIGVCEDSVCRKGGVTSAPQNGFWAVSLWYGKEYWALTSPMTALPLRTPLQRVGIFLDYDAGEVSFYNVTERCHTFTFSHATFCGPVRPYFSLSYSGGKSAAPLIICPMSGIDGFSGHVGNHGHSMETSP
notes: TRIM27, human, full length (aa 1-513 by the deletion constructs); cDNA from ImaGenes; also called RFP; source: HEK293T, transfected, in lysate; not shown: 3xmyc, N-terminal, kept
